Laboratory results: paper PMC2668188, “In Vitro Recombination Catalyzed by Bacterial Class 1 Integron Integrase IntI1 Involves Cooperative Binding and Specific Oligomeric Intermediates”

Tests used:
[1] = target: T1, IntI1(His)6 integron integrase (Pseudomonas aeruginosa Pa695 (class 1 …, UniProt Q7BP41 1-337)); experiment: EMSA; filter binding; preincubated with dsattI1 (0.1 pmol); binding strongly increased, almost to bsattC level; EMSA: 0.1 pmol DNA, 1-15 pmol IntI1 in 20 µl, 20 min at 4°C, 1% agarose at 4°C; filter binding wash: HEPES 20 mM pH 7.5, MnCl2 10 mM, NaCl 30 mM (binding buffer itself not given); details: protein: recombinant; tags: His6; chain copies: 2; label: 5' 32P; blunt
T1 sequence: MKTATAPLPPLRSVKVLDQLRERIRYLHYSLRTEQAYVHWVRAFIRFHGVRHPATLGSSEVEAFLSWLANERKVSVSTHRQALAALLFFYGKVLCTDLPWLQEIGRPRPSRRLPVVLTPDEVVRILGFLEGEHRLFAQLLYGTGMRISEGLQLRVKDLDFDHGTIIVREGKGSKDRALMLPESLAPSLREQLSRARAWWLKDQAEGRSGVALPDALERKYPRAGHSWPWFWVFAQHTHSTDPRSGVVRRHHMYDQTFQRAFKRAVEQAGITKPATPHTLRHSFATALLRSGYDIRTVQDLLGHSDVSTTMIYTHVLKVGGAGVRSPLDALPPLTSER

[2] = target: T1, IntI1(His)6 integron integrase; experiment: EMSA; EMSA: 0.1 pmol DNA, 1-15 pmol IntI1 in 20 µl, 20 min at 4°C, 1% agarose at 4°C; filter binding wash: HEPES 20 mM pH 7.5, MnCl2 10 mM, NaCl 30 mM (binding buffer itself not given); details: protein: recombinant; tags: His6; chain copies: 2; label: 5' 32P; blunt

Row | Binder | binding result [1] | binding result [2]
1 | dsattC (dsDNA) DNA 1: CGCCCGTCTAACAATTCGTTCAAGCCGACGTTGCTTCGTGGCGGCGCTTGCGTGCTACGCTAAGCTTCGCACGCCGCTTGCCACTGCGCACCGCGGCTTAACTCAGGCGTTAGATGCACT DNA 2: AGTGCATCTAACGCCTGAGTTAAGCCGCGGTGCGCAGTGGCAAGCGGCGTGCGAAGCTTAGCGTAGCACGCAAGCGCCGCCACGAAGCAACGTCGGCTTGAACGAATTGTTAGACGGGCG | binds | 
2 | dsattI1 (dsDNA) DNA 1: ACGCCGTGGGTCGATGTTTGATGTTATGGAGCAGCAACGATGTTACGCAGCAGGGCAGTCGCCCTAAAACAAAGTTAGGTGGCTCAATGAGCATCATTGC DNA 2: GCAATGATGCTCATTGAGCCACCTAACTTTGTTTTAGGGCGACTGCCCTGCTGCGTAACATCGTTGCTGCTCCATAACATCAAACATCGACCCACGGCGT |  | binds
